# In patent US20240358755A1 (IMMATICS BIOTECHNOLOGIES, published 2024):
# Molecular target: T1, HLA-A*02:01 (human)
# T1 construct: Peptide-receptive MHC class I monomer in the UV-ligand exchange assay
# Assay: UV peptide exchange, anti-b2m ELISA; exchange yield grade
# Description: (§1) Candidate peptides for T cell based therapies according to the present invention were further tested for their MHC binding capacity (affinity). The individual peptide-MHC complexes were produced by UV-ligand exchange, where a UV-sensitive peptide is cleaved upon UV-irradiation and exchanged with the peptide of interest as analyzed. Only peptide candidates that can effectively bind and stabilize the peptide-receptive MHC molecules prevent dissociation of the MHC complexes. To determine the yield of the exchange reaction, an ELISA was performed based on the detection of the light chain (β2m) of stabilized MHC complexes. The assay was performed as generally described in Rodenko et al. (Rodenko et al., 2006).
# (§2) 96 well MAXISorp plates (NUNC) were coated over night with 2 μg/ml streptavidin in PBS at room temperature, washed 4× and blocked for 1 h at 37° C. in 2% BSA containing blocking buffer. […] Peptide-MHC monomers of the UV-exchange reaction were diluted 100-fold in blocking buffer. Samples were incubated for 1 h at 37° C., washed four times, incubated with 2 μg/ml HRP conjugated anti-β2m for 1 h at 37° C., washed again and detected with TMB solution that is stopped with […]. Absorption was measured at 450 nm.
row,Binder,peptide exchange yield
1,LLGVVSHSV,≥ 75%
2,SLFPISLTV,≥ 75%
3,LLSRGILIL,≥ 75%
4,SLSKLVATV,≥ 75%
5,TLNVLITL,20 to 50%
6,ILVTAWKGV,50 to 75%
7,LVFESVVAA,≥ 75%
8,GLLGTLRVL,≥ 75%
9,IIIDRILLL,≥ 75%
10,ALGPMAFRV,≥ 75%
11,ILMILQPQL,≥ 75%
12,LLDSWNILI,≥ 75%
13,FALGPIIKQL,50 to 75%
14,SLKSSILFL,50 to 75%
15,HLFSVLSAI,≥ 75%
16,SLQESLPNA,50 to 75%
17,FLLLEKGGEL,≥ 75%
18,VLQSLQHEL,≥ 75%
19,IQAPALLKV,≥ 75%
20,ALIVLHLSL,20 to 50%
21,ITPDSIPSV,50 to 75%
22,YMLEMDNSMKI,≥ 75%
23,RLQEGLAAL,≥ 75%
24,GLLDAFLRL,≥ 75%
25,RLLRLIPIL,≥ 75%
26,ALNLSRLTV,≥ 75%
27,KLPFFTNFL,≥ 75%

# Molecular target: T2, HLA-B*07:02 (human)
# T2 construct: Peptide-receptive monomer in the UV-ligand exchange assay
# Assay: as above
# Description: as §1, §2
row,Binder,peptide exchange yield
1,SPSSNSREL,50 to 75%
2,MPWVLMSPF,≥ 75%
3,YVGPTRLEL,≥ 75%
4,MPIQVLKGL,≥ 75%
5,MPKLFLTAC,≥ 75%
6,APGPRSQGL,50 to 75%
7,RPSPVRVAAL,≥ 75%
8,SPIGLSLIL,≥ 75%
9,APSLARFLSL,≥ 75%
10,RPQGVGPAA,≥ 75%
11,IPLHFSTAF,≥ 75%
12,LPVHGPLPLLL,50 to 75%
13,VPHHLLSSV,≥ 75%
14,APLRAGWAA,≥ 75%
15,QPAPQPLL,50 to 75%
16,MPAFLSRASAL,≥ 75%
17,SPAPSLARFLSL,≥ 75%
18,IPISIFKMA,50 to 75%
19,RPIWDVRSA,≥ 75%

row,Binder,peptide exchange yield
1,NPELLVILL,50 to 75%
2,MPCTTILRI,≥ 75%
3,YPDVPIGQL,50 to 75%
4,LPALLRSL,≥ 75%
5,SLRVPSPAL,50 to 75%
6,APLLPGPAA,≥ 75%
7,RAPLPLLLL,50 to 75%
8,RPLILIRI,20 to 50%
9,ASRIQVILL,50 to 75%
10,HPRESLNMLVAF,≥ 75%
11,SPSSPLLLLA,50 to 75%
12,TPLTRTTL,50 to 75%
13,MPFLKVPPL,≥ 75%
14,LPHPVNSGL,50 to 75%
15,VVHGGMSIF,20 to 50%
16,RPSLPCRSF,50 to 75%
17,RPWLSSPTGL,≥ 75%
18,TPSHSTPSF,50 to 75%

# Molecular target: T3, HLA-A*24:02 (human)
# T3 construct: Peptide-receptive MHC class I monomer in the UV-ligand exchange assay
# Assay: allele assigned to HLA ligand eluted from tissue (IP, LC-MS)
row,Binder,binding result
1,IYLTKSNLVNM,binds
2,LWEEKPVCL,binds
3,LYDTVTHTF,binds
4,TYLESSVRI,binds
